# Results from the DeepSol protein solubility set.
# Assay: soluble on expression in E. coli; label from the status in PepcDB or PDB records
row,Sequence,soluble on expression in E. coli
1,MAHHHHHHMSDCHWAVIRKAVEAEWDASIIPALAAYIEVPNQSPDFDPQWATNGLLTKAFTILINWMKGQNLLGLSYELMEVEGRTPFLLVEIAGTEPTKNTLLMYGHMDKQPPLHPWGEGLDPHKAVVRDGKLYGRGGADDGYALFSAITSVSVLQRHGIPHGRVIVVIEACEESGSFDLDYYMERCKERIGNVDLMICLDSACLNYSQVWLTTSLRGVTGGVLNVQTLTESMHSGVAGGVVPDTFRIARELLDRVEDSKTGKVLFPEAYCEIPDYVVKSMESMKAVPFKEQFAMADGVSAEPGDNVELALRNFWKPSLTVTGSNLPEPQIAGNVIRTHTSLKLSLRVPPLVDAEKATQAMAKVLVANPPYGAKVWFEPEVPGDGCATPELKPWLVTALNEGSKMAYGNPLAFQGMGASIPFISMLLKAYPQAQFVVTGVLGPKSNAHGPNEFLHIEYAKGLTFAISRVVAEHFSHTPK,soluble
2,MGSDKIHHHHHHLNTTLSEYSIENLYGLYNHSLKFNDGESIAILHGPNGVGKTALLRSITYLFNSDFSSLSKIPFSRLFAKLSDNTEIIVTRKGVTKEQLLKHSQELHKISIEIKSKDKTTTSFSLNEAQLRPELLPPWIVLSDDGSYIDERNGMLFPEEFLHQSLFGKNKQKEIRNRETATQILEKIKVHFVETNRLYRSNSDTTWKRKKEKEMVASVDECAKHLVVLISTALKDYGKKSQELDQSFPHRFISEPIAQMSLDKLKTRLNELASQLKKLRKIGLLDAEGIQPFDPESLDKVEKSKLEIMNLYVRDSEQKLAVFDNLSKRIQVLLDGLNSKFKNKNIQLNKERGLIARGPNDFDLSLSDLSSGEQHEIVLLYELLFKVAPNTLVLIDEPELSLHMTWQKSFLPELLSISREIGFSSILATHSPFIVGDRYDLLISLDTKNNNDSME,not soluble
3,MGSDKIHHHHHHMEHIEKLNAVLKHIKTSFVGKDEIIDLLGISLIARENAFLLGPPGTAKSAIIRALSACISDGKNFEYLLTRFTEPGELFGPFDIRKLKEGDLVTNTEGMMPEASMVFLDEIFNANSAILNSLLTALNERIFRRGKETKKLPALMFIGASNVLPEDESLNALLDRFLIRARCDYVDTDLLEEVLVAGWNLETRNQNQKPAIAPAEIIELQQYAKQVDVSTVRRQYVDLIHNLRNTGIKISDRRAVKIQNLLAASAVMSNRKEVIPSDLWVLKHVWDTEEQIEILEGIINTIIEKDTNPLAHPQAQYNKTPNAEELIKEIIQLTEKWESGNLSFEEQNVVKDKLRYLQTRSNWIKNNEHKLHIQEKIESLWHKMLQTI,not soluble
4,MGSDKIHHHHHHMIKRNAAKPVRVAPPMMEEQEVSTSTLQELLEKEETVSNLIFSKGREEGISKSYKSFKNCTFRNQTFSECKFRSSQLADIRFENCDLSNISFAESSLYRVEFIACKLLGTNLSETTMNHVLLHDCNASYINLAMSKMNQVRFSHCHFRNGSFNDCRFSSVAFDSCDLVEADFSHAPLRGIDLRTSRIGGITLNISDLKGAVITSLQAMDLLPLLGVIIED,not soluble
5,MGHHHHHHSHMEFVTNYTLEELKKRFTELGLEPYRAKQVFRWVYKKFVTDFEKMTDLGKKHRELLKEHFAFHPLEKLDRVEAPDAVKYLFKTKDGHILETVLIKERDHYTLCVSSQIGCAVGCTFCATALDGLKRNLSTAEIIDQYLQVQQDLGEEKIRNVVFMGMGEPLANYENVRKAVEIMVSPEGLDLSKRRITISTSGIVAQIKRMAQDPVMKEVNLAVSLNAVSQKKREELMPLTKTNTLEELMEVLKNYPLPKYRRITLEYVLIKGVNDSPNDAERLAKLIGRHKKKFKVNLIPFNPDPNLPYERPALTDIMKFQKVLWKYGISNFVRFSKGVEVFGACGQLRTQRLQLQRV,soluble
6,MVFGPGLCIAHRGTIVVNKGARVGENCRIHACTNIGSGRDNIFLAPKIGNGVYIGPGAKIFGSVEIADNIAIGANSVVNRSFYERGISIAGVPAKKISNKGSDGMVIAATKTVSVPVSQETILEHHHHHH,not soluble
7,MAHHHHHHMNIPNPRVFLDIAIGGRNAGRMIFELFMDKLPITCENFRCLCTGETGLGYYLKPRWYKNSPIHRIVTDFMFQGGDFNFGNGYGGESIYGQYFRNEKFIYKHSKRGILSMCQTRIKHTNNSQFFVTFKSCPWLDKRHVVLGHLEYGFDTLSFIEEQGTLIGKPKKQVFIYNCGVIPLDKIKYKSADNSDDDYIIPDIEKPLLEKDISINENSDFNELRNMYKYNKHF,not soluble
8,VAKATNAPLSVSKIDFKRGDDGSGRLILKFDGQGATPDLRTQGGTVLVDLGTAVLPTVLQRQINVVDFATPVQRIDAKPMGKGAQLVLSTKGAFESLAYQTGDEYVVEIVPRKGEAAM,not soluble
9,MSLIFNKNCNVNKETQIEAFAIKNHDKKFVYPMGNIIGVKANTDGVLVLGYEEEDVDYIGGIQIGDNIVKIDNKRIKNSQDVSEILNKIKKSKVEVTFERKNKYKTEVIETKKENGKYKLGLWVRDKISGIGTMTFYDPSMEKFKAIGHAIKDSDTNELLKIKQGYIYKPEQLKIVKASNEKVGKIKGDFNDSNLMGNFSNNSELGISGNITENHNKEFNVANKEKQLIEVGRPQDVKIGDAVILFEDKNKNITSYDIKIESIVYDKGNYRDMVIKVVDDKLLEYTGGIVQGMSGAPIIQNNKIIGAITHVFRDNPKKGYGIFIDEMIKLEGHHHHHH,soluble
10,MERVRRASHAGSWYTNNARKLDEELDGWLRAAGLTKSPDVRAVIAPHAGYSYSGRCAAYAFGNIDPTNISRVFLLGPSHHYYTPKCALTRATIYSTPIGDLPVDHEVIEELNATGKFDFMDLSVDEAEHSMEMHLPYLSKVFQGHNVKVVPILVGALNSQNEAMYGQLLSKYLDDPKNFFSISSDFCHWGTRFSYTYYDKSHGAIHKSIEALDRMGMEIIETGNPDAFKQYLQEYENTICGRHPISVFLSMLKHCLTKIKIGFVRYEQSSQCKSMRDSSVSYASAAAKVDTPAEEEKD,soluble
11,MDDYKRILITKILKNEVTEALGCTEVGLIGYAVSLCNISDPFSIEKIELTLNNGSFKNAYAVGVPNTKKYGILPAVVGGLLGDHKNKLLVFNGIKYSQKLEDFIKERLKIRVINSPLYCGVKIKDNSGNTFESLIKDNHLNVVIPKINNKLISEINGSEKEEYKNLELLDFLEYIDEIPEEIIQLVEKTIYTNNNLIKGDFLNFGNDCLSNMVNKTTSACNTRMIGENMPAMSVAKSGNMGIMATLPIIAYDYSNEQNQEKLIKSILLSVLVTIYATYKSSYLSSMCGCVSKGGMGAVIGLCYYKNGKNIKKLDSAARTFTANLPGIICDGGKVGCALKLASGCFAAYSSLFVDISYENGIVGKNFKECVENISEISKIMGDLDSDIVKIMSKKEI,not soluble
12,MGRCYNNIVIDASIEAVWQQIGNFHDMSWAKGVITSLVKVGPASGTEVGAKRILNDAIHETLVSLDSSNYTFTYSIDDGPDAIAKSAVDNYLGMVNLSESSTGVLVEWSSSFTSDNEKAVTEFCDPIYMALLGALKNSLRLEHHHHHH,soluble
13,MIFVLDVGNTNTVLGVYDGDELKHHWRIETSRSKTEDEYGMMIKALLNHVGLQFSDIRGIIISSVVPPIMFALERMCLKYFHIKPLIVGPGIKTGLDIKYDNPREVGADRIVNAVAGIHLYGSPLIIVDFGTATTYCYINEHKQYMGGAIAPGIMISTEALFARAAKLPRIEIARPDDIIGKNTVSAMQAGILYGYVGQVEGIVSRMKAKSKIPPKVIATGGLAPLIASESDIIDVVDPFLTLTGLKLLYEKNTEKKG,soluble
14,TQGERRQAEQLAVQTARTISYMPPVKELIERKDGHAAQTQEVIEQMKEQTGAFAIYVLNEKGDIRSASGKSGLKKLERSREILFGGSHVSETKADGRRVIRGSAPIIKEQKGYSQVIGSVSVDFLQT,not soluble
15,MTDTRKFKATDLFSFNNINLDPLTETFNISFYLSYLNKWPSLCVVQESDLSDPTLMGYIMGKSEGTGKEWHTHVTAITVAPNSRRLGLARTMMDYLETVGNSENAFFVDLFVRASNALAIDFYKGLGYSVYRRVIGYYSNPHGKDEDSFDMRKPLSRDVNRESIRENGENFKCSPADVSF,soluble
16,MGSDKIHHHHHHMSEFDAIFVGAGHNSLACAAHLALKGWKTGIFERSSTIGGAVQTREFTLPGFRHDFGAMNLSLFAGSAFHRKYANELKTQGLEFAPVADCFASAFPDGRWFGVSNDLEKTASRMAAFSAADAATWRKLVAAFPGEAEHLFRLLGSPMSARALAGTAWNLWRKKGVAGALDTGRLLLSSPRTWLEETFESPYVRATLATWGMHLDFAPDIAGGAVFPYLESMANQSFGMVLGKGGADTIIRALAGMVTSAGGKIVTGAEVSEITVSNGKATGVRLTSGETHTATKAVIAGVAPKALTGTLLPGGSGNAGFDTAMKKFRYAPGTMMIHLALDELPGWRAGSELRQFAYVHLSPSLDAMSRTYQQAMAGMLPDEPVLVVGQPTAIDPSRAPQGKHVLWVQVRMLPAEITGDAGGKIAPAHWDQVKDAYAERVLDIIETYAPGLRSKILGRSVFSPIDLERENPNLVGGDQVCGSHHLAQNFLFRPARGYAGWNTPVGNLHLTGAATWPGAGTGAASGFMLAQQLGGR,not soluble
17,MAAAKIKKGDTVLVVRGKEKGKQGKVLKVYERVKRRDKQGNPVYVRHFVIVEGVRLIKKHVKPIEGVREGGIIETEGPIDISNVMLICPNCNKPTRVGFRIVEEGNVRRKYRYCKKCNENIDLVSEKVIKGG,soluble
18,VAEEATGDWGQIFTAFNELSQTLAEYEEERVKHRNELQQERDRFRRLFQSIPEPAVVVEYTGNKTLIHNVNEAFEETFGYEASNAVGGDINDFIVPDGSLEEAESIDQLSSSGKQVTHEVRREAADGKRDFLLRSTPAVDGE,not soluble
19,MWKMLSSEYSILLIDDDADVLDAYTQLLEQSGYRVFACNNPFEAQAWIQPDWPGIVLSDVCMPGCSGIDLMMLFHQDDQQLPILLITGHGDVPMAVDAVKKGAWDFLQKPVDPGKLLSLVEEALRQRQSIIARRQYCQQTLQVELIGRSEWINQYRRRLQQLSETDIAVWLYGAPGTGRMTGARYLHQFGRNAQGEFVYRELTPDNAPQLNDFIALAQGGTLVLSHPEHLTREQQYHLVQLQSQEHRPFRLIGIGDTSLVELAASNHIIAELYYCFAMTQIACLPLTQRPDDIEPLFRHYLCKACQRLNHPVPEVGKEMLKEMMRRMWPNNVRELANAAELFTVGVLPLAETANPLMHVGTPTPLDRRVEDAERQIITEALNIHQGRINEVAEYLQIPRKKLYLRMKKYGLSKEHYKI,not soluble
20,MSLRTGKTNVIALVLSVDEELMGFTSQMVFGITEVLSTTQYHLVVTPHIHAKDSMVPIRYILETGSADGVIISKIEPNDPRVRFMTERNMPFVTHGRSDMGIEHAFHDFDNEAYAYEAVERLAQCGRKRIAVIVPPSRFSFHDHARKGFNRGIRDFGLTEFPIDAVTIETPLEKIRDFGQRLMQSSDRPDGIVSISGSSTIALVAGFEAAGVKIGEDVDIVSKQSAEFLNWIKPQIHTVNEDIKLAGRELAKALLARINGEAAETLQSISGPVWSSMAPKEGHHHHHH,soluble
